Data set [1] concerns the target T1, acetylcholine receptor (Homo sapiens, UniProt P02708). Put plainly: SPR binding affinity (RU) of optimized 5mer/6mer/7mer peptides, Examples 6-7. To be noted: for Binding affinity, values relative to the RRGVRR sequence / Binding affinity (RU) / Binding affinity: SPR; for Binding affinity, values relative to the RRGVRR sequence: XRRGVRR-7mer and RRGVRRX-7mer; for Binding affinity (RU): peptides at 10 μM; for Binding affinity: peptides tested at 10 μM. A digest of the protocol:
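Single-concentration screen: 10 μM peptide, SPR detection, binding expressed as RU.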
In general terms: SPR reads the build-up and loss of mass on a sensor chip optically.

In data set [2] the target is T2, Acetylcholine receptor-overexpressing TE671 cells (Homo sapiens, UniProt P02708).
T2 construct: endogenous in cells; host or cells: TE671 cells
Put plainly: Calcium imaging (Fura-2-AM) of nicotine response, acetylcholine receptor inhibition. The following applies: for inhibition at 1 µM: TE-671; for concentration at which acetylcholine receptors were inhibited: TE671 cells, nicotine 400 uM, calcium imaging. It is filed as cell-based. The method, then: Acetylcholine receptor-overexpressing TE671 cells were cultured at 37° C. in DMEM medium supplemented with 10% FBS and 1% P/S under 5% CO2. After the TE671 cells were sufficiently grown for 4 days, the cells were detached using trypsin and the cell culture was plated in an amount of 1 ml at a density of 2×10^4 cells/well into 12-well cell culture plate with an 18 mm cover-slip lined therein, and cultured for 4 days.
The cover-slip on which the cells had grown was transferred to a fresh 12-well cell culture plate, and 997 μl of HBSS buffer and 3 μl of Fura-2-AM were added and gently mixed, followed by incubation at 37° C., 5% CO2 for 15 minutes. After incubation, the remaining Fura-2-AM was removed by washing 3-4 times with 1 ml of HBSS buffer, and an additional 1 ml was added. The cover-slip with the grown cells was placed in a chamber, and 500 μl of HBSS buffer was dispensed. The final concentration of nicotine was adjusted to 400 µM to observe the calcium imaging reaction. Then, while keeping the nicotine concentration fixed, the concentration of the sample was adjusted to find the inhibiting concentration.
The inhibitory ability of the Palmitate-6mer-1-43 and Palmitate-5mer-73 peptides on the acetylcholine receptor was examined in the same manner as in Example 6. Additionally, the inhibitory ability (IC50) of the optimized short peptides and the palmitate-modified peptides according to the present disclosure against acetylcholine receptor was compared with Synake and is depicted in FIG. 16.

The subject of data set [3] is dermal fibroblast cells isolated from human skin. The following applies: 100 nM to 100 μM, 24 hours.
Procedure: The optimized shortened peptides according to the present disclosure were assayed for cytotoxicity. In this regard, the cytotoxicity was assessed by the MTT [(3-(4,5-dimethylthiazol-2-yl)-2,5-diphenyltetrazolium bromide] method using dermal fibroblast cells isolated from human skin. The pre-cultured cells were seeded at a concentration of 1×10^5 cells/mL in a 24-well plate and cultured for 18 hours. Subsequently, the medium was removed and the diluted sample was added to the medium free of FBS and incubated for 24 hours, after which the medium was removed and MTT solution was added at a concentration of 1 μg/mL and reacted for 3 hours. Unreacted MTT was removed, and DMSO 100 μL was added to dissolve the formed formazan, and the absorbance at 540 nm was read on an ELISA reader.
Data set [4] concerns the target T1, acetylcholine receptor. Put plainly: SPR (Biacore) affinity of shortened Espep2 peptides, Examples 1-2. The class given is binding. To be noted: for higher affinity compared to Synake: SPR, FIG. 1. The method, then:
To construct an optimized shortened library from the previous Espep2 peptide, assessment was made of the affinity of peptides having sequences sequentially removed from the N- and C-terminals. Initially, surface plasmon resonance (SPR) experiments were conducted using a biosensor chip (Biacore3000, Biacore AB, Uppsala, Sweden). Selected acetylcholine receptor proteins were immobilized on a CM5 chip (Biacore) using EDC/NHS and observed for association and dissociation for up to 500 seconds. The observation conditions were set forth as follows: running buffer 20 mM Tris (pH 7.4), rate 30 ul/min, concentration 20 μM (peptide), and the results are depicted in FIG. 1.
To identify the crucial sequences in the shortened peptides, alanine scanning was conducted. Wild-type (WT) Espep2-6mer (RKSLLR) and Espep2-5mer (KSLLR) peptides were synthesized with each amino acid sequentially substituted with alanine (Ala, A), and their affinity was measured using the same method as in Example 1. The measurements are depicted in FIG. 2 after normalization to WT.
Moreover, among the six amino acids in the RKSLLR sequence, R residues at the N and C terminals are crucial.

Data set [5] addresses T1, acetylcholine receptor. The data set is described as above. The class given is binding. To be noted: FIG. 3.

Read-outs that look alike come from different tables or passages of the source. Residues, ends and D or L forms follow the SMILES beside them. No end group written: not given here. *: point of attachment. Palmitoyl = CCCCCCCCCCCCCCCC(=O)*

T2 sequence (P07510 23-517): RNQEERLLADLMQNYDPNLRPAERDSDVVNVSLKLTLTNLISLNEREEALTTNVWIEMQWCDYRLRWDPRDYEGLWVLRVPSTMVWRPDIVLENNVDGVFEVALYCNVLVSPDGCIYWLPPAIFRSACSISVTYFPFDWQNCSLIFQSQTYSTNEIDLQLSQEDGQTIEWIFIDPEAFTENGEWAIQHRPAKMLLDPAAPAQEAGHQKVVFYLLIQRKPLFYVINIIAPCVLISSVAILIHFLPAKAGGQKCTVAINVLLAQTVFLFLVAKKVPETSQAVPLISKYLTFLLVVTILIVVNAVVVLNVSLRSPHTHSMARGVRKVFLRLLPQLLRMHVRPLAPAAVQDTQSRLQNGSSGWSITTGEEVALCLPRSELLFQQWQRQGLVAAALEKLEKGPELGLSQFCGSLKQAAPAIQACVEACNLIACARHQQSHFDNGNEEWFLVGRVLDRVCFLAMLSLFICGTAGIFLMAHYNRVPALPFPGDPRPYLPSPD
T2 sequence (P11230 24-501, further chain): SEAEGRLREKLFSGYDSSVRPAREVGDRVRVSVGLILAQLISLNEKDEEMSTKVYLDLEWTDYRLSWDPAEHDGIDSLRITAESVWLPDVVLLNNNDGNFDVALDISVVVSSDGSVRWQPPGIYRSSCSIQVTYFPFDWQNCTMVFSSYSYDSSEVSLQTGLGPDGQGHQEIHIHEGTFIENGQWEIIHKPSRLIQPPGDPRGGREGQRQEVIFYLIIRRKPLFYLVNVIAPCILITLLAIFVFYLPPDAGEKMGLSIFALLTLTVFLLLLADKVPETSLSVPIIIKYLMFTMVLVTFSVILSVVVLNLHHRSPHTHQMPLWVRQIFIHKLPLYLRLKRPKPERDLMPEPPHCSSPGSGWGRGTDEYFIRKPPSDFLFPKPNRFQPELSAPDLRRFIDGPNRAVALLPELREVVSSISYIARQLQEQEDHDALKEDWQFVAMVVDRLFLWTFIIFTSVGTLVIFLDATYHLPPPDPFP
T2 sequence (Q07001 22-517, further chain): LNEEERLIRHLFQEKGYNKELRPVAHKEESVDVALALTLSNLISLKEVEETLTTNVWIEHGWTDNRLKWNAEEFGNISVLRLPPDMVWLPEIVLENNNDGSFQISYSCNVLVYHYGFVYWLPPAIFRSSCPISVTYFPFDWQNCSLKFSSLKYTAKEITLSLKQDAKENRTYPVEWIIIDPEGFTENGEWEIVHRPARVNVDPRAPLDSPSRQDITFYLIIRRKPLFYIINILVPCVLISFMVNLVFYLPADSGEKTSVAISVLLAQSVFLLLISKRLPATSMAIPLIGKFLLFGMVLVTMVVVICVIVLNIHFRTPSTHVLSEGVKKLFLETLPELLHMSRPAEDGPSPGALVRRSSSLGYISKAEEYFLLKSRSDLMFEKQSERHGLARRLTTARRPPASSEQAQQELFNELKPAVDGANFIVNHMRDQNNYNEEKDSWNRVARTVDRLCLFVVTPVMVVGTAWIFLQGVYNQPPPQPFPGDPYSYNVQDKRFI
T2 sequence (P02708 21-457): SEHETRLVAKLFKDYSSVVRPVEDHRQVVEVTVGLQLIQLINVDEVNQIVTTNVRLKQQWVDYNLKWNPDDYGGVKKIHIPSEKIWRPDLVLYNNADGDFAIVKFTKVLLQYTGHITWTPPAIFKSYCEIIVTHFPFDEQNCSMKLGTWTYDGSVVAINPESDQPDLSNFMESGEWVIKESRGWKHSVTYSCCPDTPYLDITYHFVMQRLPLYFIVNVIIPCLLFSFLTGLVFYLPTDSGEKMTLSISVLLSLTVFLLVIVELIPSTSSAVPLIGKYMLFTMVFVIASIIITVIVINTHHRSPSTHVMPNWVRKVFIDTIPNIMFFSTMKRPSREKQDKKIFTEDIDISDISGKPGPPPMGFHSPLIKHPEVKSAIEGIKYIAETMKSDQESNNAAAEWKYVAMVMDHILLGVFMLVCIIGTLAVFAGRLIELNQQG
T1 sequence (P02708 21-457): as above

3658 (HRRGVRR) [compound 3658]: the “Binding affinity, values relative to the RRGVRR sequence” value with acetylcholine receptor [1] was 160.

Consider 3659 (DRRGVRR) [compound 3659], for which the “Binding affinity, values relative to the RRGVRR sequence” value with acetylcholine receptor [1] is given as 159.

As for 3660 (ERRGVRR) [compound 3660], the “Binding affinity, values relative to the RRGVRR sequence” value with acetylcholine receptor [1] turned out to be 43.

As to 3661 (RRGVRRG) [compound 3661], the “Binding affinity, values relative to the RRGVRR sequence” value with acetylcholine receptor [1] is on record as 105.

Take 3662 (RRGVRRA) [compound 3662]: in the data set with acetylcholine receptor [1], the “Binding affinity, values relative to the RRGVRR sequence” value is listed as 118.

For the compound 3663 (RRGVRRV) [compound 3663], the “Binding affinity, values relative to the RRGVRR sequence” value with acetylcholine receptor [1] came to 149.

Turning to 3664 (RRGVRRC) [compound 3664], the “Binding affinity, values relative to the RRGVRR sequence” value with acetylcholine receptor [1] was 131.

Regarding 3665 (RRGVRRP) [compound 3665], the “Binding affinity, values relative to the RRGVRR sequence” value in the data set with acetylcholine receptor [1] was found to be 142.

As to 3666 (RRGVRRL) [compound 3666], the “Binding affinity, values relative to the RRGVRR sequence” value in the data set with acetylcholine receptor [1] worked out at 146.

In the case of 3667 (RRGVRRI) [compound 3667], the “Binding affinity, values relative to the RRGVRR sequence” value with acetylcholine receptor [1] was found to be 138.

Take 3668 (RRGVRRM) [compound 3668]: the “Binding affinity, values relative to the RRGVRR sequence” value with acetylcholine receptor [1] is on record as 127.

On to 3669 (RRGVRRW) [compound 3669], for which the “Binding affinity, values relative to the RRGVRR sequence” value in the data set with acetylcholine receptor [1] stood at 134.

As for 3670 (RRGVRRF) [compound 3670], the “Binding affinity, values relative to the RRGVRR sequence” value in the data set with acetylcholine receptor [1] is recorded as 137.

As for 3671 (RRGVRRS) [compound 3671], the “Binding affinity, values relative to the RRGVRR sequence” value with acetylcholine receptor [1] worked out at 118.

Consider 3672 (RRGVRRT) [compound 3672], for which, in the data set with acetylcholine receptor [1], the “Binding affinity, values relative to the RRGVRR sequence” value is given as 113.

Consider 3673 (RRGVRRY) [compound 3673], for which the “Binding affinity, values relative to the RRGVRR sequence” value with acetylcholine receptor [1] is 101.

Regarding 3674 (RRGVRRN) [compound 3674], the “Binding affinity, values relative to the RRGVRR sequence” value with acetylcholine receptor [1] is on record as 105.

Turning to 3675 (RRGVRRQ) [compound 3675], in the data set with acetylcholine receptor [1], the “Binding affinity, values relative to the RRGVRR sequence” value amounted to 105.

Consider 3676 (RRGVRRK) [compound 3676], for which the “Binding affinity, values relative to the RRGVRR sequence” value in the data set with acetylcholine receptor [1] is listed as 171.

3677 (RRGVRRR) [compound 3677]: the “Binding affinity, values relative to the RRGVRR sequence” value in the data set with acetylcholine receptor [1] was determined as 188.

With 3678 (RRGVRRH) [compound 3678], the “Binding affinity, values relative to the RRGVRR sequence” value with acetylcholine receptor [1] came out at 154.

As for 3679 (RRGVRRD) [compound 3679], the “Binding affinity, values relative to the RRGVRR sequence” value with acetylcholine receptor [1] came to 61.

3680 (RRGVRRE) [compound 3680]: in the data set with acetylcholine receptor [1], the “Binding affinity, values relative to the RRGVRR sequence” value is reported as 33.

One may read the inhibition as the relative decrease from the control value, in per cent. With `CCCCCCCCCCCCCCCC(=O)N[C@@H](CCCNC(=N)N)C(=O)N[C@@H](CCCNC(=N)N)C(=O)N[C@@H](CCC(N)=O)C(=O)N[C@@H](CCCNC(=N)N)C(=O)N[C@@H](CCCNC(=N)N)C(=O)O` [Pal-5mer-73] (Palmitoyl-RRQRR-OH; N-terminus and C-terminus assumed), the inhibition at 1 µM in data set [2] is 100%. In addition, the “cytotoxicity (MTT)” value in data set [3] is given as “non-toxic”.

Consider `CCCCCCCCCCCCCCCC(=O)N[C@@H](CCCNC(=N)N)C(=O)N[C@@H](CCCCN)C(=O)N[C@@H](CCCNC(=N)N)C(=O)N[C@H](C(=O)N[C@@H](CCCNC(=N)N)C(=O)N[C@@H](CCCNC(=N)N)C(=O)O)[C@@H](C)CC` [Pal-6mer-1-43] (Palmitoyl-RKRIRR-OH; N-terminus and C-terminus assumed), for which the inhibition at 1 µM in data set [2] amounted to 100%. In addition, the “cytotoxicity (MTT)” value in data set [3] was “non-toxic”.

Usually Kd stands for the constant that tells how readily two partners part at equilibrium. As for KGRKSLLR [Espep2-8mer, KGRKSLLR], at acetylcholine receptor [4], binding was put at a Kd of 3100 nM and the “higher affinity compared to Synake” value stood at 740 times.

On to KSLLR [5mer-ND], for which the “binding affinity compared to Synake” value in the data set with acetylcholine receptor [5] is “higher binding affinity than Synake”. In addition, the “Binding affinity (RU)” value with acetylcholine receptor [1] is recorded as 23 RU.

As to KWRQKR [6mer-2-233], in data set [2], the “concentration at which acetylcholine receptors were inhibited” value is 10 µM. Moreover, in the data set with acetylcholine receptor [1] (Resonance Units, 6mer-2 Top sequence (Table 12)), the Binding affinity was determined as 190 Ru. For the same compound, in the data set with acetylcholine receptor [1], the “Binding affinity (RU)” value came out at 190 RU.

With RKRIRR [6mer-1-43, RKRIRR], the “concentration at which acetylcholine receptors were inhibited” value in data set [2] was 10 µM. Moreover, at acetylcholine receptor [1], the equilibrium dissociation constant (Kd) was 609 nM and the “Binding affinity (RU)” value is on record as 548 RU. Besides, at acetylcholine receptor [1] (6mer-1 Top sequence (top combinations)), the Binding affinity was 548 Ru. The “cytotoxicity (MTT)” value in data set [3] is “non-toxic”.

Regarding RKSLL [5mer-CD], the “binding affinity compared to Synake” value with acetylcholine receptor [5] is “slightly lower binding affinity compared to Synake”.

Consider RKSLLR [Espep2-6mer, RKSLLR], for which the “binding affinity compared to Synake” value at acetylcholine receptor [5] is recorded as “higher affinity than that of Synake”. The same compound registered an RU value on acetylcholine receptor [5] (peptide 20 μM) of 177 RU. Besides, on acetylcholine receptor [4], the Kd came to 57000 nM and the “higher affinity compared to Synake” value was 40 times. Also, the “Binding affinity (RU)” value at acetylcholine receptor [1] was 35 RU.

Take RRGVRR [6mer-1-210]: the “concentration at which acetylcholine receptors were inhibited” value in data set [2] worked out at 10 µM. Moreover, the Binding affinity with acetylcholine receptor [1] (6mer-1 Top sequence) was found to be 184 Ru. In the data set with acetylcholine receptor [1], the “Binding affinity (RU)” value is recorded as 184 RU.

As to RRQRR [5mer-73, RRQRR], the skin permeability (after 8 hours, 37° C.) amounted to 66.87%. The “cytotoxicity (MTT)” value in data set [3] is given as “non-toxic”.

Regarding RSYSR [5mer-311], in data set [2], the “concentration at which acetylcholine receptors were inhibited” value came to 10 µM. Further, the “Binding affinity (RU)” value with acetylcholine receptor [1] was determined as 167 RU. Moreover, the Binding affinity in the data set with acetylcholine receptor [1] (5mer Top sequence) turned out to be 167 Ru.

Turning to RWRYKR [6mer-2-136], the “concentration at which acetylcholine receptors were inhibited” value in data set [2] stood at 10 µM. The Binding affinity with acetylcholine receptor [1] (6mer-2 Top sequence) was 194 Ru. In the data set with acetylcholine receptor [1], the “Binding affinity (RU)” value was found to be 194 RU.

Turning to “WTWKGRKSLLR [Espep2-11mer, WTWKGRKSLLR, reference compound]”, where the note is “sampled up to 24 hours”, the “skin permeability” value is recorded as “did not permeate at all”. In addition, the “concentration at which acetylcholine receptors were inhibited” value in data set [2] came to 5 µM. At acetylcholine receptor [4], the Kd came out at 1200 nM and the “higher affinity compared to Synake” value was found to be 1916 times.

These data come from patent US20250011363A1, “OPTIMIZED SHORTENED PEPTIDE THAT BINDS TO ACETYLCHOLINE RECEPTOR, AND USE THEREOF” (SKINMED CO., LTD., priority 2021, published 2025).
